Data reported in patent US20160123962A1 (ALBERT EINSTEIN COLLEGE OF MEDICINE, published 2016).

B1: human tenascin-R (hTN-R) (other, UniProt Q92752 32-1358, looked up)
chain: QLEVTTERVQRQSVEEEGGIANYNTSSKEQPVVFNHVYNINVPLDNLCSSGLEASAEQEVSAEDETLAEYMGQTSDHESQVTFTHRINFPKKACPCASSAQVLQELLSRIEMLEREVSVLRDQCNANCCQESAATGQLDYIPHCSGHGNFSFESCGCICNEGWFGKNCSEPYCPLGCSSRGVCVDGQCICDSEYSGDDCSELRCPTDCSSRGLCVDGECVCEEPYTGEDCRELRCPGDCSGKGRCANGTCLCEEGYVGEDCGQRQCLNACSGRGQCEEGLCVCEEGYQGPDCSAVAPPEDLRVAGISDRSIELEWDGPMAVTEYVISYQPTALGGLQLQQRVPGDWSGVTITELEPGLTYNISVYAVISNILSLPITAKVATHLSTPQGLQFKTITETTVEVQWEPFSFSFDGWEISFIPKNNEGGVIAQVPSDVTSFNQTGLKPGEEYIVNVVALKEQARSPPTSASVSTVIDGPTQILVRDVSDTVAFVEWIPPRAKVDFILLKYGLVGGEGGRTTFRLQPPLSQYSVQALRPGSRYEVSVSAVRGTNESDSATTQFTTEIDAPKNLRVGSRTATSLDLEWDNSEAEVQEYKVVYSTLAGEQYHEVLVPRGIGPTTRATLTDLVPGTEYGVGISAVMNSQQSVPATMNARTELDSPRDLMVTASSETSISLIWTKASGPIDHYRITFTPSSGIASEVTVPKDRTSYTLTDLEPGAEYIISVTAERGRQQSLESTVDAFTGFRPISHLHFSHVTSSSVNITWSDPSPPADRLILNYSPRDEEEEMMEVSLDATKRHAVLMGLQPATEYIVNLVAVHGTVTSEPIVGSITTGIDPPKDITISNVTKDSVMVSWSPPVASFDYYRVSYRPTQVGRLDSSVVPNTVTEFTITRLNPATEYEISLNSVRGREESERICTLVHTAMDNPVDLIATNITPTEALLQWKAPVGEVENYVIVLTHFAVAGETILVDGVSEEFRLVDLLPSTHYTATMYATNGPLTSGTISTNFSTLLDPPANLTASEVTRQSALISWQPPRAEIENYVLTYKSTDGSRKELIVDAEDTWIRLEGLLENTDYTVLLQAAQDTTWSSITSTAFTTGGRVFPHPQDCAQHLMNGDTLSGVYPIFLNGELSQKLQVYCDMTTDGGGWIVFQRRQNGQTDFFRKWADYRVGFGNVEDEFWLGLDNIHRITSQGRYELRVDMRDGQEAAFASYDRFSVEDSRNLYKLRIGSYNGTAGDSLSYHQGRPFSTEDRDNDVAVTNCAMSYKGAWWYKNCHRTNLNGKYGESRHSQGINWYHWKGHEFSIPFVEMKMRPYNHRLMAGRKRQSLQF
notes: Extracellular matrix protein used as analyte in SPR

Assays:
[1] = target: human PTP-ζ (protein tyrosine phosphatase receptor type zeta) of U251 human glioblastoma cells (human) (UniProt P23471); assay: cell-based or functional assay
[2] = target: T1, human PTP-ζ extracellular domain fused to immunoglobulin Fc domain (hPTP-ζ-ECD-Fc) (human, UniProt P23471 25-1636); assay: SPR (Biacore 3000), hPTP-ζ ECD-Fc immobilized on CM5 chip, hTN-R as analyte, steady state model; TN-R with hPTP-ζ ECD-Fc
T1 construct: also called full-length hPTP-ζ ECD-Fc; not shown: immunoglobulin Fc domain
Protocol: (§1) SPR binding analyses were performed at 25° C. on Biacore instruments. […] The protein A surface was regenerated with 10 mM Glycine-HCl, pH 1.5. […] All sensorgrams were double-referenced.

[3] = target: T2, human CSF-1R extracellular domain fused to immunoglobulin Fc domain (hCSF-1R-ECD-Fc) (human, UniProt P07333 20-517); assay: SPR (Biacore T100), hCSF-1R-ECD-Fc captured on Protein A, hCSF-1 as analyte; hCSF-1 on hCSF-1R-ECD-Fc
T2 construct: extracellular domain; not shown: immunoglobulin Fc domain
Protocol: as §1

[4] = target: T1, human PTP-ζ extracellular domain fused …; assay: SPR (Biacore T100), hPTP-ζ-ECD-Fc captured on Protein A, hIL-34 as analyte, steady state model; hIL-34 on full-length hPTP-ζ ECD-Fc
Protocol: as §1

human tenascin-R (hTN-R) = target: B1; assay: SPR (Biacore 3000), IL-34 immobilized on CM5 chip, hTN-R as analyte, steady state model; IL-34 with hTN-R
Protocol: as §1

[5] = target: T2, human CSF-1R extracellular domain fused …; assay: SPR (Biacore T100), hCSF-1R-ECD-Fc captured on Protein A, hIL-34 as analyte; hIL-34 on hCSF-1R-ECD-Fc
Protocol: as §1

human brevican = target: T3, human brevican (human, UniProt Q96GW7 23-911, limits assumed); assay: SPR, brevican immobilized on the chip, hIL-34 as analyte; IL-34 with human brevican
T3 construct: Proteoglycan immobilized on the SPR chip
T3 sequence (looked up): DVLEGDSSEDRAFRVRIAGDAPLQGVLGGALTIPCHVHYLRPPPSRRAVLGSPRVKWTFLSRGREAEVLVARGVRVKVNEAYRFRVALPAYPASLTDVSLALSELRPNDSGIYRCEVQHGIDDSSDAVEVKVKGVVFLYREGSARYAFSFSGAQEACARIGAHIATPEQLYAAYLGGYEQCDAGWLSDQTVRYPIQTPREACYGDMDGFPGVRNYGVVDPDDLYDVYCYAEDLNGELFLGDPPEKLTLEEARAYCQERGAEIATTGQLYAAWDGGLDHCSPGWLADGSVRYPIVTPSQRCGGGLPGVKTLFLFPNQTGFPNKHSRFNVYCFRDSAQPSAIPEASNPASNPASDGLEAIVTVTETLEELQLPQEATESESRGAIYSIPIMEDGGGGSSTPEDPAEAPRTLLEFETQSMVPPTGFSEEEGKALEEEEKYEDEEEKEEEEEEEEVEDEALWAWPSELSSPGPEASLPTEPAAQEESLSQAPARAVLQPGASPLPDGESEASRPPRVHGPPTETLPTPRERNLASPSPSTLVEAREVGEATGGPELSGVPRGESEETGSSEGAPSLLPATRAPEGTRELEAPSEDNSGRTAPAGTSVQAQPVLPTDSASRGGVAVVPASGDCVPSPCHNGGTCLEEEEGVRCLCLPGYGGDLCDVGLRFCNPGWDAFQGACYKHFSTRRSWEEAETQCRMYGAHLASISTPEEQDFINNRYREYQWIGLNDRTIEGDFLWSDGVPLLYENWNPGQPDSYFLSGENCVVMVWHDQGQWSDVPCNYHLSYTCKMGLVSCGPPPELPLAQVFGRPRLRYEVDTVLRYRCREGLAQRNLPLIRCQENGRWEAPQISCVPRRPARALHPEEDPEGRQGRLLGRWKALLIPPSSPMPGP
Protocol: as §1

[6] = target: T4, human PTP-ζ (protein tyrosine phosphatase receptor type zeta) of U251 human glioblastoma cells (human, UniProt P23471 25-2315, chondroitin sulfate glycosaminoglycan chains (proteoglycan)); assay: flow cytometry on U251 cells, detection with biotin-labeled anti-FLAG M2 antibody
T4 construct: Endogenous protein on intact U251 cells (flow cytometry) or in OG-solubilized U251 membrane lysates (pull-down); long (~400 kDa), non-glycosaminoglycanylated (300 kDa) and short (220 kDa) isoforms are present; U251 cells lack CSF-1R; also called PTP-β/ζ; cell-surface PTP-ζ

[7] = target: T4, human PTP-ζ (protein tyrosine …); assay: flow cytometry on U251 cells, detection with biotin-labeled anti-FLAG M2 antibody, at concentrations equivalent to IL-34-FLAG

T1 sequence (P23471 25-1636): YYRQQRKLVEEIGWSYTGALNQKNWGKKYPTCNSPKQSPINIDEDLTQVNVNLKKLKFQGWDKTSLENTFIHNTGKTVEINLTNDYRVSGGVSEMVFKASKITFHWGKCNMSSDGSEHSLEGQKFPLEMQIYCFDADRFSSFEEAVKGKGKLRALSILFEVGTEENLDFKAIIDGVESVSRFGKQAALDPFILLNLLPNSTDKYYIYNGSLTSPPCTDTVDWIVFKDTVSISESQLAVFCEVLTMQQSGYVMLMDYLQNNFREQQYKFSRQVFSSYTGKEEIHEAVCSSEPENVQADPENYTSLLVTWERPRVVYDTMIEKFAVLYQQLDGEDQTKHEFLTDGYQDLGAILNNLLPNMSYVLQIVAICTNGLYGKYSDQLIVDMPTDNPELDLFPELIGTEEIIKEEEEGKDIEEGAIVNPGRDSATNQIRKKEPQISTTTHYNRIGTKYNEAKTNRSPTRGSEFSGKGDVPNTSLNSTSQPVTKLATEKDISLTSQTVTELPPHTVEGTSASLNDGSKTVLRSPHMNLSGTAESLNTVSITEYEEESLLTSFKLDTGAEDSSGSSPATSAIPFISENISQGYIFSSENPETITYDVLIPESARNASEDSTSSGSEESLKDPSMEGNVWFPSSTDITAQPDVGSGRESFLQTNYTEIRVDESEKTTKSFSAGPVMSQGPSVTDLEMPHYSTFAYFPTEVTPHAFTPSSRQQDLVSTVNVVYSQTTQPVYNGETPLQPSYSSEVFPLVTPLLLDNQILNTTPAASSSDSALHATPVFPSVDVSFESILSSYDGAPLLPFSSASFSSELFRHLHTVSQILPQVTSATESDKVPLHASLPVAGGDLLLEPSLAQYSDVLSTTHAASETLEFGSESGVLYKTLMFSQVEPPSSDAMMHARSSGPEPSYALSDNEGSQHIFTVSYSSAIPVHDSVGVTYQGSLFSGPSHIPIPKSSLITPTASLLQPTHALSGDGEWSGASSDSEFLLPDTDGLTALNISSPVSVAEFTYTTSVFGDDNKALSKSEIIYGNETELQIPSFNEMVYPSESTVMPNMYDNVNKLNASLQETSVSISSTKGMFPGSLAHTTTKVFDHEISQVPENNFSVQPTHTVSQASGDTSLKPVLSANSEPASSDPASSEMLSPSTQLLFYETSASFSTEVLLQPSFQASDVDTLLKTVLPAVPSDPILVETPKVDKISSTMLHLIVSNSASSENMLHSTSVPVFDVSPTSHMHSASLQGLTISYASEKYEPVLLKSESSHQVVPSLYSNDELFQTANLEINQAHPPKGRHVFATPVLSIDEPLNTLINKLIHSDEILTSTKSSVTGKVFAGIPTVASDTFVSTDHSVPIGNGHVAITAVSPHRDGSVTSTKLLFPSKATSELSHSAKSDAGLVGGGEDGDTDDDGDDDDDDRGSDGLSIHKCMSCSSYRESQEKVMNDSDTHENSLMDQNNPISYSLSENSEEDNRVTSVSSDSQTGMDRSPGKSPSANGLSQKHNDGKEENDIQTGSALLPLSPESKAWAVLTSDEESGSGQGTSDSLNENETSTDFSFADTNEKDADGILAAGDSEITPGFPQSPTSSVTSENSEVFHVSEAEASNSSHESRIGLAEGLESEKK
T2 sequence (P07333 20-517): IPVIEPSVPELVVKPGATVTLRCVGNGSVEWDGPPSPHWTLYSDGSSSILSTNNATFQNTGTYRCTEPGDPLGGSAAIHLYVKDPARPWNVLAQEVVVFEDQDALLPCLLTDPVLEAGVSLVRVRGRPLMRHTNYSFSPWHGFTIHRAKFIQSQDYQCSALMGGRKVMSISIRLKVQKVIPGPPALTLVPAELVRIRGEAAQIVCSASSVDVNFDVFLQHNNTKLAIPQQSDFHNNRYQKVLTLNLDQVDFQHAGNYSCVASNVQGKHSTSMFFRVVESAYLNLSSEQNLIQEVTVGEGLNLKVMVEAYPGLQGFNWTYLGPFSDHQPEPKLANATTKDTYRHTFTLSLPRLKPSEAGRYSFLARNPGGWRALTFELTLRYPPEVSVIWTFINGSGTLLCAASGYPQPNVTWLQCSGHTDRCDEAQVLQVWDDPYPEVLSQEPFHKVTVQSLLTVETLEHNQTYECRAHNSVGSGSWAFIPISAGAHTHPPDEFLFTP
T4 sequence (P23471 25-2315 limits assumed): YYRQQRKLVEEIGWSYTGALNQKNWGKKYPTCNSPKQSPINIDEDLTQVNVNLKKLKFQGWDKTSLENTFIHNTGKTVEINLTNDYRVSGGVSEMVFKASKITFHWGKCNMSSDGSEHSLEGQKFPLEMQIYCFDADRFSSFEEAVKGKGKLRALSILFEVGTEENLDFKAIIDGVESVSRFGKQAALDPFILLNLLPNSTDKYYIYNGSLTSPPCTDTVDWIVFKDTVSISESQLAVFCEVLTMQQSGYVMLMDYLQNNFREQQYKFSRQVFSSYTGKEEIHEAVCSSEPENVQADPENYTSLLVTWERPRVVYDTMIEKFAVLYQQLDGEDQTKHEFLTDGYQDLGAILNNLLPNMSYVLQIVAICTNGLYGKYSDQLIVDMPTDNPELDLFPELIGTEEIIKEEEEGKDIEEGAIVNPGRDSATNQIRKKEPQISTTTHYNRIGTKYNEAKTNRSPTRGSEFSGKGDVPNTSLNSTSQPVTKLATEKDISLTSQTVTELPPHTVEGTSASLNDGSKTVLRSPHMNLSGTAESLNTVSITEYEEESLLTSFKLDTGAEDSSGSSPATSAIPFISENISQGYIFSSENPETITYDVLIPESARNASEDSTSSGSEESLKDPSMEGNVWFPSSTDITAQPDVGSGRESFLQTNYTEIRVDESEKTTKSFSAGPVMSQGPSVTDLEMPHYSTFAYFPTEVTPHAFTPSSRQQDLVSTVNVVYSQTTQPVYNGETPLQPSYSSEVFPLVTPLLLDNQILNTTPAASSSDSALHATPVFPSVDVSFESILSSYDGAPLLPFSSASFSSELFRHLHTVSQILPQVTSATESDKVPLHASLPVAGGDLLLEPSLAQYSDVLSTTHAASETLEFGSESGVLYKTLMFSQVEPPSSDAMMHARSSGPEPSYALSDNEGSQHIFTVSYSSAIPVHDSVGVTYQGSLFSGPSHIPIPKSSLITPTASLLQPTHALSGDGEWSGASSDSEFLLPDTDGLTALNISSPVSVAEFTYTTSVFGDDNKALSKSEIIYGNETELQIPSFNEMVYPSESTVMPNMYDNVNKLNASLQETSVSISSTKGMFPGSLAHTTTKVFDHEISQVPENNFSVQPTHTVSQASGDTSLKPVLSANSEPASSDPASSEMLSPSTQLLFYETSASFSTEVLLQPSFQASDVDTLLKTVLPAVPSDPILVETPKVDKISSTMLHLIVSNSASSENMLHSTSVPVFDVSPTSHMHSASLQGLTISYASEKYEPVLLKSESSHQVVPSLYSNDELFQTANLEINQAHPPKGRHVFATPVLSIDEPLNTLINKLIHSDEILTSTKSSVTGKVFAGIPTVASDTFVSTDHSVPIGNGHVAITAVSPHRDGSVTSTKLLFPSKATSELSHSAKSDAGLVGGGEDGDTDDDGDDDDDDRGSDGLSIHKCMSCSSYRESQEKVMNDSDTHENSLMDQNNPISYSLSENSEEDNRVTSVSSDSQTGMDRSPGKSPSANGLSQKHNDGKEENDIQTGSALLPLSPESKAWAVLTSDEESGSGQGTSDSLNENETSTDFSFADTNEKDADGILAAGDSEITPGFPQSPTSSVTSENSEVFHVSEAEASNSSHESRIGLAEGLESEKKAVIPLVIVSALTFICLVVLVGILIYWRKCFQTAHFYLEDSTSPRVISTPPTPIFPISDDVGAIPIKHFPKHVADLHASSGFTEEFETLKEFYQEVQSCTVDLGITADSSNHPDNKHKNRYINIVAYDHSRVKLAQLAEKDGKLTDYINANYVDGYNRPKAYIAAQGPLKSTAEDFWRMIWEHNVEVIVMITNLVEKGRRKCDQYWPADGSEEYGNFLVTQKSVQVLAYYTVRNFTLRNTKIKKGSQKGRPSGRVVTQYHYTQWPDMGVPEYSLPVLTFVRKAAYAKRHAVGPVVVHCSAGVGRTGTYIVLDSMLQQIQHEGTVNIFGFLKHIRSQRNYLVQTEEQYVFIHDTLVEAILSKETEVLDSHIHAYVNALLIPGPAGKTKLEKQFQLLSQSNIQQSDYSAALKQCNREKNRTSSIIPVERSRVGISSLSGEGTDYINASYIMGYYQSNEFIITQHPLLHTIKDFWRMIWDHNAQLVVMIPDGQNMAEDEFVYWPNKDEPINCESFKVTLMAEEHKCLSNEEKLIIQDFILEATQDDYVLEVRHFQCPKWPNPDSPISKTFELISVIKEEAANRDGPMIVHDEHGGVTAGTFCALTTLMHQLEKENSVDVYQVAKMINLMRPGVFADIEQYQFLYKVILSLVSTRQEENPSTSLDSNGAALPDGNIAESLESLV
Sequence of human PTP-ζ (protein tyrosine phosphatase receptor type zeta) of U251 human glioblastoma cells (human) (P23471 25-2315 limits assumed): as above

A clonogenicity of U251 cells (colony count at 8 days) [1] of 53% and a wound healing of U251 monolayer, time taken for 50% wound closure (t50) [1] of 10 h were found for “human pleiotrophin (hPTN) (from UniProt P21246 33-168) (ligand)” in this work.

A Kd [2] of roughly 10 nM was found for B1 in this work.

B2: human recombinant CSF-1 (colony stimulating factor-1) (ligand, UniProt P09603 36-253, looked up)
chain: SEYCSHMIGSGHLQSLQRLIDSQMETSCQITFEFVDQEQLKDPVCYLKKAFLLVQDIMEDTMRFRDNTPNAIAIVQLQELSLRLKSCFTKDYEEHDKACVRTFYETPLQLLEKVKNVFNETKNLLDKDWNIFSKNCNNSFAECSSQDVVTKPDCNCLYPKAIPSSDPASVSPHQPLAPSMAPVAGLTWEDSEGTEGSSLLPGEQPLHTVDPGSAKQRP
notes: also called hCSF-1
A Kd [3] of roughly 0.01 nM was found for B2 in this work.

B3: human IL-34 (interleukin-34) (ligand, UniProt Q6ZMJ4 21-242, looked up)
chain: NEPLEMWPLTQNEECTVTGFLRDKLQYRSRLQYMKHYFPINYKISVPYEGVFRIANVTRLQRAQVSERELRYLWVLVSLSATESVQDVLLEGHPSWKYLQEVETLLLNVQQGLTDVEVSPKVESVLSLLNAPGPNLKLVRPKALLDNCFRVMELLYCSCCKQSSVLNWQDCEVPSPQSCSPEPSLQYAATQLYPPPPWSPSSPPHSTGSVRPVRAQGEGLLP
modifications: biotinylated with EZ-Link Sulfo-NHS-LC-LC-Biotin in the pull-down and flow cytometry assays; unlabelled in SPR
notes: Purified protein; also called hIL-34; biotinylated hIL-34
A Kd [4] of roughly 100 nM, a Kd (human tenascin-R (hTN-R)) of roughly 1000 nM and a Kd [5] of roughly 1 pM were found for B3 in this work. The Kd (human brevican) was 3000 nM.

B4: FLAG-tagged human IL-34 (ligand, UniProt Q6ZMJ4 21-242, looked up)
chain: NEPLEMWPLTQNEECTVTGFLRDKLQYRSRLQYMKHYFPINYKISVPYEGVFRIANVTRLQRAQVSERELRYLWVLVSLSATESVQDVLLEGHPSWKYLQEVETLLLNVQQGLTDVEVSPKVESVLSLLNAPGPNLKLVRPKALLDNCFRVMELLYCSCCKQSSVLNWQDCEVPSPQSCSPEPSLQYAATQLYPPPPWSPSSPPHSTGSVRPVRAQGEGLLP
notes: also called IL-34-FLAG; not shown: FLAG tag
B4: binds [6].

B5: FLAG-tagged human CSF-1 (ligand, UniProt P09603 33-255, looked up)
chain: EEVSEYCSHMIGSGHLQSLQRLIDSQMETSCQITFEFVDQEQLKDPVCYLKKAFLLVQDIMEDTMRFRDNTPNAIAIVQLQELSLRLKSCFTKDYEEHDKACVRTFYETPLQLLEKVKNVFNETKNLLDKDWNIFSKNCNNSFAECSSQDVVTKPDCNCLYPKAIPSSDPASVSPHQPLAPSMAPVAGLTWEDSEGTEGSSLLPGEQPLHTVDPGSAKQRPPR
notes: also called CSF-1-FLAG; not shown: FLAG tag
B5: no binding [7].
